According to article PMC4142144:

Target: 2CARD^RIG-I(E52A)-CARD^MAVS(KKK) fusion protein, 16 aa linker (human) (UniProt O95786)
Assay: SEC-MALS

stoichiometry N: 4
Substance: 2CARD^RIG-I(E52A)-CARD^MAVS(KKK) fusion protein, 16 aa linker (from UniProt O95786 1-188; Q7Z434 1-97)
